Results on 6 molecules are retold here after paper PMC9035715, “Regulatory subunit NEMO promotes polyubiquitin-dependent induction of NF-κB through a targetable second interaction with upstream activator IKK2” (The Journal of Biological Chemistry, 2022).

Common to all, as to conditions: both partners purified
Assay [1] deals with T1, linear tetra-ubiquitin (Ub4), M1-linked (UniProt P0CG48 1-76; P0CG48 1-76; P0CG48 1-76; P0CG48 1-76).
T1 construct: ubiquitin, copy 1 of four moieties covalently linked N-terminal to C-terminal on one chain (M1 linked); ubiquitin, copy 2 of four; ubiquitin, copy 3 of four; ubiquitin, copy 4 of four; also called linear poly-Ub; methionine-linked Ub4 chain; source: recombinant (pET24d construct), purified; not shown: His6, N-terminal, kept
T1 sequence (P0CG48 1-304, one chain of several): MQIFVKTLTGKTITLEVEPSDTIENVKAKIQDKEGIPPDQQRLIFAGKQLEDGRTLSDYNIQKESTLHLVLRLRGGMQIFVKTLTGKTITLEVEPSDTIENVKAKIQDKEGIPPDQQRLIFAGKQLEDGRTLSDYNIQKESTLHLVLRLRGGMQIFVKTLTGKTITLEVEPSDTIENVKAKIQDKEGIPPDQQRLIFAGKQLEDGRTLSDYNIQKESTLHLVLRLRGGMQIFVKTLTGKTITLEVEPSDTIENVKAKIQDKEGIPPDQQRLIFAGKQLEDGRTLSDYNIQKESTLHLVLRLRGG
The experiment in a line: SEC; Superose6 Increase 10/300 GL; 25 mM Tris–HCl pH 8.0, 250 mM NaCl, 2 mM DTT, 5% glycerol; 0.2 ml/min, 22 °C; peak fractions on Coomassie-stained SDS-PAGE. (Size exclusion chromatography separates by hydrodynamic size, large species first.)

Assay [2] concerns the target T1, linear tetra-ubiquitin (Ub4), M1-linked. Description: pull-down; Ub4 recovered with GST-NEMO^241–419 from mixtures with HA-IKK2 HEK293T lysate, with or without TAT peptides (200–25 μM), 2 h at 4 °C; Western blot. In general terms: Immunoblotting shows a protein as a band on a membrane.
For assay [3] the target is unchanged. The experiment in a line: pull-down; purified GST-NEMO fusions mixed with purified IKK proteins in the presence of Ub4, 1 h at 4 °C, then glutathione–agarose beads 2 h at 4 °C; 25 mM Tris–HCl pH 7.5, 150 mM NaCl, 1 mM EDTA, 0.5% NP-40, 0.55% Triton X-100, 5% glycerol, 1 mM DTT; four washes; Western blot.

B1: GST-NEMO^241–390 (domain or fragment, human, UniProt Q9Y6K9 241-390, looked up)
chain: YDNHIKSSVVGSERKRGMQLEDLKQQLQQAEEALVAKQEVIDKLKEEAEQHKIVMETVPVLKAQADIYKADFQAERQAREKLAEKKELLQEQLEQLQREYSKLKASCQESARIEDMRKRHVEVSQAPLPPAPAYLSSPLALPSQRRSPPE
notes: source: E. coli Rosetta (DE3), purified (glutathione–agarose); not shown: GST, N-terminal, kept
Take B1: in assay [1], the binding result is on record as “binds”.

B2: GST-NEMO^241–375 (domain or fragment, human, UniProt Q9Y6K9 241-375, looked up)
chain: YDNHIKSSVVGSERKRGMQLEDLKQQLQQAEEALVAKQEVIDKLKEEAEQHKIVMETVPVLKAQADIYKADFQAERQAREKLAEKKELLQEQLEQLQREYSKLKASCQESARIEDMRKRHVEVSQAPLPPAPAYL
notes: as for B1
Regarding B2, the binding result in assay [1] is recorded as “binds”.

B3: GST-NEMO^241–419 (domain or fragment, human, UniProt Q9Y6K9 241-419, looked up)
chain: YDNHIKSSVVGSERKRGMQLEDLKQQLQQAEEALVAKQEVIDKLKEEAEQHKIVMETVPVLKAQADIYKADFQAERQAREKLAEKKELLQEQLEQLQREYSKLKASCQESARIEDMRKRHVEVSQAPLPPAPAYLSSPLALPSQRRSPPEEPPDFCCPKCQYQAPDMDTLQIHVMECIE
notes: also called CC2-ZF; source: E. coli Rosetta (DE3), purified (glutathione–agarose); not shown: GST, N-terminal, kept
For B3, in assay [2], the binding result is listed as “binds”.

B4: GST-NEMO^241–350 (domain or fragment, human, UniProt Q9Y6K9 241-350, looked up)
chain: YDNHIKSSVVGSERKRGMQLEDLKQQLQQAEEALVAKQEVIDKLKEEAEQHKIVMETVPVLKAQADIYKADFQAERQAREKLAEKKELLQEQLEQLQREYSKLKASCQES
notes: as for B1
For the molecule B4, the binding result in assay [1] is listed as “binds”.

B5: GST-NEMO^241–383 (domain or fragment, human, UniProt Q9Y6K9 241-383, looked up)
chain: YDNHIKSSVVGSERKRGMQLEDLKQQLQQAEEALVAKQEVIDKLKEEAEQHKIVMETVPVLKAQADIYKADFQAERQAREKLAEKKELLQEQLEQLQREYSKLKASCQESARIEDMRKRHVEVSQAPLPPAPAYLSSPLALPS
notes: as for B1
Take B5: the binding result in assay [1] was “binds”.

B6: GST-NEMO^111–419 (domain or fragment, human, UniProt Q9Y6K9 111-419, looked up)
chain: KLDLKRQKEQALREVEHLKRCQQQMAEDKASVKAQVTSLLGELQESQSRLEAATKECQALEGRARAASEQARQLESEREALQQQHSVQVDQLRMQGQSVEAALRMERQAASEEKRKLAQLQVAYHQLFQEYDNHIKSSVVGSERKRGMQLEDLKQQLQQAEEALVAKQEVIDKLKEEAEQHKIVMETVPVLKAQADIYKADFQAERQAREKLAEKKELLQEQLEQLQREYSKLKASCQESARIEDMRKRHVEVSQAPLPPAPAYLSSPLALPSQRRSPPEEPPDFCCPKCQYQAPDMDTLQIHVMECIE
notes: also called truncated NEMO (lacking the KBD); source: E. coli Rosetta (DE3), purified (glutathione–agarose); not shown: GST, N-terminal, kept
Turning to B6, the binding result in assay [3] is “binds”.
